Experimental data from patent US20180194850A1 (GENERAL HOSPITAL, published 2018).

Assays:
[1] = molecular target: T1, EGCRL2…; assay: CLIPS peptide-array ELISA [Continued]
T1 sequence (peptide, 2 = Cys(Acm)): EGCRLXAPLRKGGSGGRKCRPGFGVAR

S03933 = molecular target: T2, S03933; assay: linear peptide ELISA (absorbance); Affinity +
T2 sequence (peptide): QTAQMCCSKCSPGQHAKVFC

[2] = molecular target: T3, peptide fragment defined by residues 130-149 of SEQ ID NO: 7 within human TNFR2 (KQEGCRLCAPLRKCRPGFGV) (human); assay: comparison of affinity for linear peptides; assay not named in the sentence (linear peptide ELISA, FIG. 13B)
T3 construct: also called linear peptide containing the KCRPG motif
T3 peptide: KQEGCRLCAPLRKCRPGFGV
Protocol: ELISA was also used to determine linear epitopes present on the extracellular surface of TNFR2.
Linear peptides corresponding to various regions within the TNFR2 primary sequence were purchased from GenScript (Piscataway, N.J.), diluted in coating buffer and placed on Immulon 4HBX Flat Bottom Microtiter Plates (Thermo Scientific) at a concentration of 1 μg/well. Primary TNFR2 antagonistic antibodies (0.1 μg/well) were incubated with substrates. Secondary antibodies against rodent IgG were used to detect the primary antibodies. Absorbance was measured using the SPECTRAMAX® 190 Absorbance Plate Reader and analyzed with SoftMax Pro 6.3 (Molecular Devices).

B1: antagonistic TNFR2 antibody TNFRAB1 (antibody, V domains shown)
VH: EVQLQESGGGLVKPGGSLKLSCAASGFTFSSYVMSWVRQTPEKRLEWVATISSGGSYTYYPDSVKGRFTISRDNAKNTLYLQMSSLRSEDTAMYYCARQRVDGYSSYWYFDVWGAGTAVTVSS
VL: DIVLTQSPAIMSASPGEKVTITCSASSSVYYMYWFQQKPGTSPKLWIYSTSNLASGVPVRFSGSGSGTSYSLTISRMEAEDAATYYCQQRRNYPYTFGGGTKLEIKR
notes: Murine monoclonal IgG; For SPR the antibody was biotinylated and captured on streptavidin; also called TNFR2 antagonist 1
In the case of B1, the Raw luminescence data [1] is reported as 358, the Reading (S03933) is reported as 0.1 and the “fold greater affinity than for the peptide of residues 48-67 (…, SEQ ID NO: 18)” value [2] is reported as 40 fold.
